{"source": "patent US20250115680A1", "about": "(PROFOUNDBIO US, published 2025)", "binders": {"B1": {"name": "humanized antibody 2C5 (antibody, V domains shown)", "VH": "QVQLVQSGAEVKKPGASVKVSCKASGYTFTDYYINWVRQAPGQGLEWMGDINPYSGGPVYNQKFMARVTMTVDKSINTAYMELSRLRSDDTAVYYCARGDYYGSNYNYWGQGTLVTVSS", "VL": "EIVLTQSPATLSVSPGERATLSCRASQNIGTSIHWYQQKPGQAPRLLIKFASESISGIPARFSGSGSGTEFTLTISSLQSEDIAVYYCQQSNNWPYTFGQGTKLEIK", "notes": "Only variable regions are tied to 2C5; It was detected with anti-human Fc, so it has a human Fc"}}, "key": {"[1]": {"biological_target": "T1, mouse PTK-7 recombinant protein (mouse, UniProt Q8BKG3 23-696, limits assumed)", "T1 construct": "also called mouse PTK7 protein", "T1 sequence (looked up)": "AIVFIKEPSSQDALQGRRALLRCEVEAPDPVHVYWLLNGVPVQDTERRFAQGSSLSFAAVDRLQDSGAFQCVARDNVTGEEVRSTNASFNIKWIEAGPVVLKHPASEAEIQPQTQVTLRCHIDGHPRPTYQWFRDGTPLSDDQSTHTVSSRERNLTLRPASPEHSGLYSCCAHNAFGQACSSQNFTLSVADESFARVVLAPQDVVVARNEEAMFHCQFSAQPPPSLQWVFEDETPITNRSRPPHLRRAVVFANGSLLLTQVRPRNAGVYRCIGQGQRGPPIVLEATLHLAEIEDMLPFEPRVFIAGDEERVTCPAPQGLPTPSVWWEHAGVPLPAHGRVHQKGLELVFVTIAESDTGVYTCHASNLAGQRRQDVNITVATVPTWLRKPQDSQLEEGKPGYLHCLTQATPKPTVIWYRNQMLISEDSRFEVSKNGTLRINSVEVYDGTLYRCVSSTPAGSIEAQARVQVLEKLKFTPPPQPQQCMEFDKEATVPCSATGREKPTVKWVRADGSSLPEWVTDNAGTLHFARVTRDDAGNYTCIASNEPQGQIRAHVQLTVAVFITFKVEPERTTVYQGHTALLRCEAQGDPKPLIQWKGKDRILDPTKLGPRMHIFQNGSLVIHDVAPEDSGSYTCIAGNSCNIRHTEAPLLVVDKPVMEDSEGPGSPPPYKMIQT", "experiment": "ELISA, plate coated with 2 ug/mL mouse PTK-7 recombinant protein, HRP anti-human Fc detection, OD450", "experimental": "(§1) Binding specificity property was tested by ELISA according to a standard protocol. Specifically, 96-well micro-plates were coated with 2 μg/mL human, cynomolgus, mouse, and rat PTK-7 recombinant protein in PBS 100 μL per well, incubated overnight at 4° C. Plates were washed twice by TBS+0.5% Tween20. 200 μL of blocking buffer (2% BSA in PBS) was added to each well and incubated at 37° C. for 2 hours. Plates were washed using the buffer mentioned above. Serially diluted antibodies were added to the ELISA plate with 100 μL per well and incubated for 1 hour at room temperature. Then plates were washed for 3 times. After washing, HRP conjugated anti-human Fc antibody solution (abcam, ab98624, diluted with blocking buffer) was added to the plate with 100 μl per well. The plates were incubated at room temperature for 1 hour and then washed for 3 times. Then TMB solution was added to plates with 100 μl per well, placed at room temperature for 5-15 mins, then the stop solution (2M H₂SO₄) was added with 50 μl per well. Finally, the result was measured by absorbance at A₄₅₀ and A₆₃₀."}, "[2]": {"biological_target": "T2, rat PTK-7 recombinant protein (rat, UniProt A0A8I6ALM9 40-713)", "T2 construct": "also called rat PTK7 protein", "experiment": "ELISA, plate coated with 2 ug/mL rat PTK-7 recombinant protein, HRP anti-human Fc detection, OD450", "experimental": "as §1"}, "[3]": {"biological_target": "T2, rat PTK-7 recombinant protein", "experiment": "ELISA, plate-coated rat PTK7 protein, anti-human Fc-HRP detection", "experimental": "as §1"}, "[4]": {"biological_target": "T1, mouse PTK-7 recombinant protein", "experiment": "ELISA, plate-coated mouse PTK7 protein, anti-human Fc-HRP detection", "experimental": "as §1"}}, "data": [{"binder": "B1", "values": [{"measurement": "EC50", "setting": "[1]", "result": 1.57, "unit": "nM"}, {"measurement": "EC50", "setting": "[2]", "result": 5.24, "unit": "nM"}, {"measurement": "EC50", "setting": "[3]", "result": 1.57, "unit": "nM"}, {"measurement": "EC50", "setting": "[4]", "result": 5.24, "unit": "nM"}]}]}
